{"source": "patent US20090208490A1", "about": "(AbbVie / Abbott, published 2009)", "key": {"[1]": {"molecular_target": "T1, recombinant mouse proNGF (rm-proNGF) (mouse, UniProt P01139 19-241)", "T1 sequence (P01139 19-241)": "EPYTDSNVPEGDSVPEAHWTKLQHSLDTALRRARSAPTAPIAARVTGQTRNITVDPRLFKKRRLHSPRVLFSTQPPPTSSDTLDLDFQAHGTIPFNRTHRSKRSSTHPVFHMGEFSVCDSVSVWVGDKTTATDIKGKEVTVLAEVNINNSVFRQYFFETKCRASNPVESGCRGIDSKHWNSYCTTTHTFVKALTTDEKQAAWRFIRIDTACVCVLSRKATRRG", "experiment": "SPR (BIAcore), antibody immobilized"}, "[2]": {"molecular_target": "T2, mouse NGF (m-NGF, Alomone) (mouse, UniProt P01139 122-241)", "T2 construct": "mature; Commercial m-NGF", "T2 sequence (P01139 122-241 limits assumed)": "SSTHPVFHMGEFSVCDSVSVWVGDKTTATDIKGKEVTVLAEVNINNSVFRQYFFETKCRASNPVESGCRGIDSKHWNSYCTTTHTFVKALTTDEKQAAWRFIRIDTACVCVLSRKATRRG", "experiment": "SPR (BIAcore 2000), antibody amine-coupled on CM5 chip, m-NGF injected", "description": "For m-NGF binding, the immobilization of the antibody was of 3000 resonance units (RU) in the experiment of panel A and of 6000 RU in the experiment of panel B. The injected concentrations of the m-NGF are indicated on top of each curve. From a complete analysis of the data, the affinity parameters were evaluated, and resulted to be the following.\n(§1) Experiments were performed on CM5 chips with amine coupling, using a BIAcore 2000 machine. Coupling was performed with a specific kit purchased at BIAcore and the coupling reaction was carried out according to manufacturer's instructions.\n(§2) Anti-NGF antibodies were immobilized on chip, while mouse NGF (m-NGF, Alomone) or recombinant mouse proNGF (rm-proNGF) were injected at decreasing concentrations to obtain binding curves."}, "[3]": {"molecular_target": "T1, recombinant mouse proNGF (rm-proNGF)", "experiment": "SPR (BIAcore 2000), antibody amine-coupled on CM5 chip (3000 RU), rm-proNGF injected, kinetic analysis", "description": "The injected concentrations of the rm-proNGF are indicated on top of each curve.\nas §1, §2"}}, "data": [{"binder": "Hu-αD11 (humanized variant of the αD11 anti-NGF antibody) (antibody, V domains shown, also called Hu-alphaD11; Hu-aD11) VH: EVQLVESGGGLVQPGGSLRLSCAASGFSLTNNNVNWVRQAPGKGLEWVGGVWAGGATDYNSALKSRFTISRDNSKNTAYLQMNSLRAEDTAVYYCARDGGYSSSTLYAMDAWGQGTLVTVSS VL: DIQMTQSPSSLSASVGDRVTITCRASEDIYNALAWYQQKPGKAPKLLIYNTDTLHTGVPSRFSGSGSGTDYTLTISSLQPEDFATYFCQHYFHYPRTFGQGTKVEIK", "values": [{"measurement": "binding result", "setting": "[1]", "value": "binds"}]}, {"binder": "αD11 anti-NGF antibody (antibody, V domains shown, Rat monoclonal antibody purified from hybridoma supernatant; the constant regions are not; also called alphaD11; aD11) VH: QVQLKESGPGLVQPSQTLSLTCTVSGFSLTNNNVNWVRQATGRGLEWMGGVWAGGATDYNSALKSRLTITRDTSKSQVFLKMHSLQSEDTATYYCARDGGYSSSTLYAMDAWGQGTTVTVSA VL: DIQMTQSPASLSASLGETVTIECRASEDIYNALAWYQQKPGKSPQLLIYNTDTLHTGVPSRFSGSGSGTQYSLKINSLQSEDVASYFCQHYFHYPRTFGGGTKLELK", "values": [{"measurement": "Kd", "setting": "[2]", "value": 2.8, "unit": "pM"}, {"measurement": "Ka", "setting": "[3]", "value": "1.2e+09", "unit": "M⁻¹"}, {"measurement": "Kd", "setting": "[3]", "value": 1.9, "unit": "nM"}]}]}
